Source: patent US20200299738

Key:
[1] = molecular target: T1, E. rectale acyl carrier protein (T protein; gene ereT)
T1 chain: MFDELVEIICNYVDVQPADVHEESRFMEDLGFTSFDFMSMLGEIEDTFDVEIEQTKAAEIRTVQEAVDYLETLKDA

[2] = molecular target: T2, C. eutactus acyl carrier protein (T protein; gene ceuT)
T2 chain: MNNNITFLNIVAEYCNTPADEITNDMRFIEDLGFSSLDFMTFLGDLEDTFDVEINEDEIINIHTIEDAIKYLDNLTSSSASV

B1: C. eutactus fatty acyl-ACP synthetase (A protein; gene ceuA) (protein)
chain: MEENILEIVEKSCRIHRDVIAVKYLSHREIVEKSYGDMWDDIRKTAVILRNNGLCGTHIALVGSSSYEWICAYMAILFTGNTAVPLDANLSVSELHELLNRSGSIALFCGASRKDVITELTDDCPEMNIVFTMEKKVDIEHLEGADSNPQLAILSFEQLRNEITIPDDFAFADQDKDKMCTLMYTSGTTGKSKGVMLSQFNLAQNVENVYVNLEPGVTILSVLPIHHAFCLTMEWMKGISLGATICINDSLLHMLKNMKRFQPVGMLMVPLMVETIYKKLKDVNPLLPKKLVAKEAFGGKLEYIFCGGAYLDPMYVTEFKKYGIDILQGYGMTECSPVICSNNHRYNRPGSVGKLLDNCAVRFVDEEIQVKGTSVMSGYYDMPNETAEAFQDGWLCTGDLGYLDSDGFMYITGRKKNLIILANGENISPEELEGKLSIEPLISEIVITGDGNHLTAHIYPDQDFVDKKHMDAARTSEKLQKIIDTFNKNQPTYKRISALDIRKEPFEKSSTKKIKRNLV
adenylation activity after swapping the T protein between the C. eutactus and E. rectale pathways [1]: While the C protein lost activity, the A protein retained activity after swapping the T protein

B2: E. rectale condensation domain protein (fatty acyl-transferase, C protein; gene ereC) (protein)
chain: MKTRKGHNVYPITVAQKFHLYYAKYCPNMAVLNIGTSLTIGTELDWNVLRDSINYAYARNEAMRIRFTRDKDGECYQYIADVDEDFKERTVDFKDFTDVTMEEAENEMQGWTQVPFEFEDSPMTKIVMIKMPDGFNGVYFLGHHMVVDAQSLIAFLKDIIEIYCNAMYEGVPFPKDMCSYIEQLKKDLAYEAGSKAQLRDREFFEKLIRQSEPIYNGIDGTAKLDAARELMHDNKLRSAFNASDDVTSALDIFHLEAEPTKRLMDFCEKYHISLACLLLMGIRTFFQKENGFDDVSVNNAIARRATLKEKKSGGTRIHSFPFRTCFSKDVRFIDAVYTIRDKQNELFRHANYNPTEYFALRSKTYPQPKAGLTYEPMSLTYQPMTLKEKGLNDLGDIKYKTKWYPNGMTTQAMYLTVMHRPEDNGLDFSFEHQVKAVSRKQLEYMYYYLCKIMFKGAENPELTIGEIIKLV
condensation activity (enzyme-catalysed FAA product formation) after swapping the T protein between the C. eutactus and E. rectale pathways [2]: While the C protein lost activity, the A protein retained activity after swapping the T protein | enzymatic production of hybrid FAA with the T and C protein pair from the same pathway and a swapped A protein [1]: Swapping the A domain, while retaining the T and C protein pair from the same pathway, permitted the enzymatic production of hybrid FAA that incorporated the substrates from two different pathways

B3: C. eutactus condensation domain protein (fatty acyl-transferase, C protein; gene ceuC) (protein)
chain: MPRKYYPLTPSQKIHFKPIIEFGTQQVANISICMTLQAPLDFGLLKKCIQLEYERYECLRIRFTKVDQNGEVRQYVVSRDDRDIDYENLSWLSGDDAYHRMEEWSRIPFDGDNIPMNVIKMISLPGGYNGLYIKIDHRLMDSCGAIVMVNDIMELYCHYKFGTPYPEDMASFTDMVERDLKKSTDEKRVSKDRMYWQNVLEENGEPIYSDIQGQRILQESRRLHNDKSLRAADQEINDLSVATKNYHLDAEPTQNLLDFCMNNHISMTNLILMGIRTYLSKANGGQTDISIRNYVSRRSTHAEWVSGGSRAMAYPCRTIIDPDTEFLDAVFMIQDVQNHVYRHCNYDPELLSDQMKEMFHTPPHTTYESVGLTYQPLPIRLKNPHLENISVRSMWIPNGTSKQKIYLTVMHSANDLGLNFYFRYQTASLSEQDIELFYYYLMKIIFKGIAEPEMTVGEIIECI
enzymatic production of hybrid FAA with the T and C protein pair from the same pathway and a swapped A protein [2]: Swapping the A domain, while retaining the T and C protein pair from the same pathway, permitted the enzymatic production of hybrid FAA that incorporated the substrates from two different pathways | condensation activity (enzyme-catalysed FAA product formation) after swapping the T protein between the C. eutactus and E. rectale pathways [1]: While the C protein lost activity, the A protein retained activity after swapping the T protein

B4: E. rectale fatty acyl-ACP synthetase (A protein; gene ereA) (protein)
chain: MLFHTIPDILSYANEAYGADDAIRWKKSKNEIESRTYSELKNDTDSFANAIEKLGKKGQHIAVIGPSSYEWIVSYLAITESGSVAVPIDASLPAADICELLDRASVRMLIFDEARSDVAEAAAKSCHDINVYVSMNSTEHCPQVLSFKGLIDDNRGSYEPAVAEDALCTIMFTSGTTGKSKGVMLTQNNLAENATCLDMKIGPHTVILSVLPIHHAYCLSMDILKGISLGSVICINDSIMRMAKNIQLFTPDMILMVPLMIETFARKLEEVRAAGLPAEPVRKKMFGERLHTICSGGAYLNPDYVDLFAEFGITILQGYGMTECSPVISTNLSWDIRKNSVGKLMPNCEAKTVDGELFVRGTSVMQGYYKMPKETEETLSDGWLHTGDLGYVDEDGYIYLTGRRKNLIITKNGENVSPEELENALSVNHLIKEIIVRESEGVIEAEIFPDREYAQNTGIADIRSALQALIDEYNVNAPAYKRIYSIKVRESEFEKTASRKIKRS
adenylation activity after swapping the T protein between the C. eutactus and E. rectale pathways [2]: While the C protein lost activity, the A protein retained activity after swapping the T protein | LC-MS/MS detection of fatty acid thiotemplated T protein fragment after reaction with the A protein, Sfp and lauric acid [1]: This was further confirmed by the detection of fatty acid thiotemplated T protein fragment using LC-MS/MS (FIG. 22) | PPi level from ATP consumption (A and T proteins relative to negative control) [1]: Up to 30-fold increase in PPi level relative to negative control was observed with fatty acid substrates
